Test system: MS2 coat protein
Assay: apparent KD of MS2 coat protein; designed switch direction (-1 OFF switch, 1 ON switch): 1; higher = weaker reporter binding
How it was run: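 The apparent KD reported per design is the median over clusters of curve fits to normalised cluster fluorescence. The RNA switches were transcribed on Illumina chips by stalled E. coli RNA polymerase. SNAP-549-labelled MS2 coat protein was titrated from 0.7 or 1.5 nM, doubling up to 3 µM, in Tris-HCl pH 7.5 buffer containing KCl, MgCl2, BSA, DTT, tRNA and Tween-20, with no input, 200 uM small-molecule ligand, or an oligonucleotide input.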

[1] = input ligand: microRNA oligo, concentration not stated
[2] = Eterna round: R95, input ligand: FMN 200 uM
[3] = Eterna round: R95, input ligand: microRNA oligo, concentration not stated
[4] = Eterna round: R95, input ligand: none

Sequence	apparent KD of MS2 coat protein (input ligand: FMN 200 uM) [nM]	apparent KD of MS2 coat protein [1] [nM]	apparent KD of MS2 coat protein (input ligand: none) [nM]	apparent KD of MS2 coat protein [2] [nM]	apparent KD of MS2 coat protein [3] [nM]	apparent KD of MS2 coat protein [4] [nM]
AAAAGAAACAUGUACCUGAGUACAUGAAAACAUGAGGAUCACCCAUGUAACAAGUUGGGUGUUUGUCUUAUAAGAAA [JL pocket 5] (Eterna round: R96, puzzle: Sensor for hsa-mir-208a)	68.7	238	231			
GUUAGGAAUCUAGCAUACAUGAGGAUCACCCAUGUAAGUGGGAAGGAUAUGGUACAGAAACUGUACCAGAAGGUCUUAUUGAUU [Omei SS(NG) 3 AV6] (Eterna round: R96, puzzle: Same State NG 3)	45.1	40.8	80.1			
CUGAGCGAUCAAGGAUAUCACGUCGAUUAGACGUGAGAAGGUGAUCCAUACAUGAGGAUCACCCAUGUAUAACAUGAAGCUCAG [SSNG1/8-A2] (Eterna round: R96, puzzle: Same State NG 1)	414	507	861			
AAACGGCCCAACGAAGGGCCACAUGAGGAUCACCCAUGUACAUAGGAUAUCACGCCAACAAAGCGUGAGAAGGGUGAUUAAAAC [Lezaer] (Eterna round: R96, puzzle: Same State NG 3)	270	11.6	163			
UGUAAACAUGAGGAUCACCCAUGUAAUAAUAUGGGAGGAUAUGGGAAUUAAUUAAUUAAACCAGAAGGCCUAAUGU [Mat - Same State 1 - D88] (puzzle: Same State 1)				30.9	388	280
UUGUUUUGUAAUUAACAUGAGGAUCACCCAUGUCUUGGCUCAGAGGAUAUACAUGUUUGUUUGUAGUAGAAGGCUGUUUGUUGU [JR_SSNG3_Sub095] (Eterna round: R96, puzzle: Same State NG 3)	94.7	107	131			
AGUGAAGAAGCUGAGGAUAUCGUAAGGAGGACAUGAGGAUCACCCAUGUGUGUGGAAUUGGAGGACGAGAAGGCAGAGGAGUGGG [JR_SS2_Sub057] (puzzle: Same State 2)				39.3	42.6	22.7
ACAAGCUUUUUGCUCCUCUUAUGUCCGAAACAUGAGGAUCACCCAUGUAUAGAUUGUGUGUUGUUGUAGAUGCAAGA [JR_SHM208A_Sub061] (puzzle: Sensor for hsa-mir-208a)				69.3	72	71.8
GGAGAACAUGAGGAUCACCCAUGUAGGCGUUAGCUAGGAUAUGCGGGAAGGAAGAGAGAAGCAGAAGGAGUAGGUA [JR_SS1_Sub031] (puzzle: Same State 1)				39.6	64.4	80
AAGAAACAUGAGGAUCACCCAUGUGAUAAUAUGGGAGGAUAUACAAAGACGAAAGUCGAAGUAGAAGGCCUAUGAA [Garnet 43] (Eterna round: R96, puzzle: Same State 1)	46.4	50.9	68.7			
CGGGUGAUCGUAGGAUAUCUAGGAUAUGAACGAGGAUCACCCGAGCAGCAUCAGCGCAUCAGAGGAGAGAAGGACGAUCAUGCG [pwkr ssNG2 2F5 2FMN.7] (Eterna round: R96, puzzle: Same State NG 2)	326	12.9	59.1			
AUGGGCAUGCUAGGAUAUUAUAGUAGGCAGCAAUGAGAAGGAGUAUCCCGUUGCUAUCACGCACCACAUGAGGAUCACCCAUGU [Eternabot solution 32] (Eterna round: R96, puzzle: Same State NG 1)	24.9	19.5	28.3			
GCGGAACAUGAGGAUCACCCAUGUAAAGGGUGUAAAGGAUAUUAUUGGGAGAAGGUAGGGUAAGAAGGUUGCUUGG [JR_SS1_Sub088] (Eterna round: R96, puzzle: Same State 1)		432				
CGUCCAGCCUGAGCUGGACAAAAGCAUGUACAUGAGGAUCACCCAUGUUCAUGUACAAGCUUUUUGCUCGUCUUACC [salish99_208a_r3_094x] (puzzle: Sensor for hsa-mir-208a)				638	15.9	1010
UUUAGCGUUACAGGAUAUGGUGAGGAUCACCCACUAGAAGGGUAAACAUGUGCGUCGGACAUGAGGAUCACCCAUGUAGGGCGU (Eterna round: R96, puzzle: Same State NG 1)	16.5	22.2	35.2			
AGCCGAGACUGAGGAUAUUUAAAUCUACAUGAGGAUCACCCAUGUAACAACACGUGGUAGUGAUUGAAGAAGGCGGCUCGGCGC [Omei SS(NG)2 Cv2] (Eterna round: R96, puzzle: Same State NG 2)	177	406	404			

Sequence	apparent KD of MS2 coat protein (input ligand: FMN 200 uM) [nM]	apparent KD of MS2 coat protein [1] [nM]	apparent KD of MS2 coat protein (input ligand: none) [nM]	apparent KD of MS2 coat protein [2] [nM]	apparent KD of MS2 coat protein [3] [nM]	apparent KD of MS2 coat protein [4] [nM]
GUACAACAUGAGGAUCACCCAUGUAUAUAUAUACGAGGAUAUGCAUGUACGAAAGUAUAUGCAGAAGGCGUUGUAC [Pin2Pin] (puzzle: Same State 1)					75.4	
UCGGGCGUACUUGCUGACAUGAGGAUCACCCAUGUAAUUGGGAAGGAUAUGGUUCCGUUUCGGUUCCAGAAGGUCCUGGGUGCU [salish99_SSNG3_r04_312] (Eterna round: R96, puzzle: Same State NG 3)	819	331	443			
AUUAUCUAUGCAGGAUAUGAUUAACAUGAGGAUCACCCAUGUGGUGUUGUGAGUAAGGAGAGUGAUCAGAAGGGCAUUUUUUUU [JMF's solution 65] (Eterna round: R96, puzzle: Same State NG 2)	875	370	566			
AGGCUCAGACGAGGAUAUAUGUGGUCACAUGAGGAUCACCCAUGUCUCGAGCUUCGGCUCGAGGCAUAGAAGGUGUCUGAGCCA [SSNG2/5-C1] (Eterna round: R96, puzzle: Same State NG 2)	115	42.5	25.7			
GCGAGCGUACUUGCUACAUGAGGAUCACCCAUGUUUAUUGGACAGGAUAUGGUACCGUUUCGGUACCAGAAGGGUCCACAUGUG [JL SSNG3 3.86] (Eterna round: R96, puzzle: Same State NG 3)	106	182	289			
GGUGGGUUACUACCAACACAUGAGGAUCACCCAUGUUUUGGGAAGGAUAUGGUACCUAUUUGGUACCAGAAGGUCCAGUUAAUG [salish99_SSNG3_r04_702] (Eterna round: R96, puzzle: Same State NG 3)	51.4	29.5	41.7			
GCUAGUAUUAUUGCUAACAUGAGGAUCACCCAUGUAUGUUGGCAGGAUAUCGUUUGCAAAGCAAACGAGAAGGGCUAAACUAGC [Mat - Same State NG 3 - JL Mod - D13] (Eterna round: R96, puzzle: Same State NG 3)	27.7	75.6	98.8			
GGGCCAGCCUGUGCUGGGCCUUAGCAUGCACAUGAGGAUCACCCAUGUCGUGUACAUGCUUUUUGCUCGUCUUUAAA [Photon Torp-09] (puzzle: Sensor for hsa-mir-208a)				79.2	15.6	93.2
AGCUAUUAAUCAGGAUAUAGUGACAUGAGGAUCACCCAUGUAUUGAUGAUUAAAUGUGGUCACUACUAGAAGGGAUUACUAACA [SameState NG2 #49] (Eterna round: R96, puzzle: Same State NG 2)	37	51.4	67.1			
UACAAUCUAUCUGAGGAUAUCAUGAUUUAAACAUGAGGAUCACCCAUGUGCAGGAAAACUGCAUAUGAGAAGGCAGAUAGAUUGU [salish99_ss2_r3_063] (puzzle: Same State 2)				135	297	241
AGUCCAGCCUGAGCUGGACAAAAGCAUGUACAUGAGGAUCACCCAUGUCAUGUACAAGCUUUUUGUUCGUCUUAAAA [Zipper 46 - 12] (puzzle: Sensor for hsa-mir-208a)				794	14.8	500
GGCUGCGUUGUGAAGGAUAUCCGCGUCUGGACAUGAGGAUCACCCAUGUAUGCUUGGAUCAUGCCGGAGAAGGUCACGAAUGAUU [JR_SS002_Sub1214] (Eterna round: R96, puzzle: Same State 2)	17	19.9	32.9			
AAACAUGAGGAUCACCCAUGUCGAUUAAAACCCUAAUCUACUCAGGAUAUCCGAAUGCGCGUUUCGGAGAAGGGAGAAAUGUGA [Isessoreri] (Eterna round: R96, puzzle: Same State NG 3)	27	37.5	31.7			
AGCUAUGGAAAACUAUAGCAAAAGUAUGUACAUGAGGAUCACCCAUGUCAUGUACAAGCUUUUUGCUCGUCUUAAAA [ak 6 mod of one Eli's designs.] (puzzle: Sensor for hsa-mir-208a)				201	18.6	189
GGUCUAGUUACAGGAUAUGCAUUGCUUUGCGAUGCAGAAGGGUGGUAACAUGAGGAUCACCCAUGUGGGCCAGCGCAAAAGCGC [JL SSNG1 cdp] (Eterna round: R96, puzzle: Same State NG 1)	981	661	1440			

Source: the supplement of paper PMC9170038
